According to IntAct's records for PubMed 35512704:

B1: Mothers against decapentaplegic homolog 4 (Homo sapiens), Q13485 (parent)
chain: MDNMSITNTPTSNDACLSIVHSLMCHRQGGESETFAKRAIESLVKKLKEKKDELDSLITAITTNGAHPSKCVTIQRTLDGRLQVAGRKGFPHVIYARLWRWPDLHKNELKHVKYCQYAFDLKCDSVCVNPYHYERVVSPGIDLSGLTLQSNAPSSMMVKDEYVHDFEGQPSLSTEGHSIQTIQHPPSNRASTETYSTPALLAPSESNATSTANFPNIPVASTSQPASILGGSHSEGLLQIASGPQPGQQQNGFTGQPATYHHNSTTTWTGSRTAPYTPNLPHHQNGHLQHHPPMPPHPGHYWPVHNELAFQPPISNHPAPEYWCSIAYFEMDVQVGETFKVPSSCPIVTVDGYVDPSGGDRFCLGQLSNVHRTEAIERARLHIGKGVQLECKGEGDVWVRCLSDHAVFVQSYYLDREAGRAPGDAVHKIYPSAYIKVFDLRQCHRQMQQQAATAQAAAAAQAAAVAGNIPGPGSVGGIAPAISLSAAAGIGVDDLRRLCILRMSFVKGWGPDYPRQSIKETPCWIEIHLHRALQLLDEVLHTMPIADPQPLD
partner: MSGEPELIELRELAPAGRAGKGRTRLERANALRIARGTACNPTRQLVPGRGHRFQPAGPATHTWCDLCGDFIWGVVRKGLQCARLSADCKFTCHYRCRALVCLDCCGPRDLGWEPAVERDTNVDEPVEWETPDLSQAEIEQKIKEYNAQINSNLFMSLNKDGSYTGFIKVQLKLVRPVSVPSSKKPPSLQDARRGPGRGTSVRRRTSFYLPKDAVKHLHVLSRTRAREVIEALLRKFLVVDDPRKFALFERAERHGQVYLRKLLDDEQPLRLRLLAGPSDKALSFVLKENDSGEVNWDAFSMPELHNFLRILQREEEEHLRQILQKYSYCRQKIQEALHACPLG
B2: Mothers against decapentaplegic homolog 4 (Homo sapiens), Q13485 (parent)
chain: B1 chain
partner: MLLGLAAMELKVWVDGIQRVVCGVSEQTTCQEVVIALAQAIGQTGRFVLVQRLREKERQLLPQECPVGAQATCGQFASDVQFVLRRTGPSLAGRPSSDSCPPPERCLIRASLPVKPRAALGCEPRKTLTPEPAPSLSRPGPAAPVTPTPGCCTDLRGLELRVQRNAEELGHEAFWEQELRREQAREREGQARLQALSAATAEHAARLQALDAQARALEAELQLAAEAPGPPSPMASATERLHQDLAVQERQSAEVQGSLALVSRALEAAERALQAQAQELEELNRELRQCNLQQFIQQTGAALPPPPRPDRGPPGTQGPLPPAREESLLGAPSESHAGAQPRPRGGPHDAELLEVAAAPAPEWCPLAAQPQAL
B3: Mothers against decapentaplegic homolog 4 (Homo sapiens), Q13485 (parent)
chain: B1 chain
partner: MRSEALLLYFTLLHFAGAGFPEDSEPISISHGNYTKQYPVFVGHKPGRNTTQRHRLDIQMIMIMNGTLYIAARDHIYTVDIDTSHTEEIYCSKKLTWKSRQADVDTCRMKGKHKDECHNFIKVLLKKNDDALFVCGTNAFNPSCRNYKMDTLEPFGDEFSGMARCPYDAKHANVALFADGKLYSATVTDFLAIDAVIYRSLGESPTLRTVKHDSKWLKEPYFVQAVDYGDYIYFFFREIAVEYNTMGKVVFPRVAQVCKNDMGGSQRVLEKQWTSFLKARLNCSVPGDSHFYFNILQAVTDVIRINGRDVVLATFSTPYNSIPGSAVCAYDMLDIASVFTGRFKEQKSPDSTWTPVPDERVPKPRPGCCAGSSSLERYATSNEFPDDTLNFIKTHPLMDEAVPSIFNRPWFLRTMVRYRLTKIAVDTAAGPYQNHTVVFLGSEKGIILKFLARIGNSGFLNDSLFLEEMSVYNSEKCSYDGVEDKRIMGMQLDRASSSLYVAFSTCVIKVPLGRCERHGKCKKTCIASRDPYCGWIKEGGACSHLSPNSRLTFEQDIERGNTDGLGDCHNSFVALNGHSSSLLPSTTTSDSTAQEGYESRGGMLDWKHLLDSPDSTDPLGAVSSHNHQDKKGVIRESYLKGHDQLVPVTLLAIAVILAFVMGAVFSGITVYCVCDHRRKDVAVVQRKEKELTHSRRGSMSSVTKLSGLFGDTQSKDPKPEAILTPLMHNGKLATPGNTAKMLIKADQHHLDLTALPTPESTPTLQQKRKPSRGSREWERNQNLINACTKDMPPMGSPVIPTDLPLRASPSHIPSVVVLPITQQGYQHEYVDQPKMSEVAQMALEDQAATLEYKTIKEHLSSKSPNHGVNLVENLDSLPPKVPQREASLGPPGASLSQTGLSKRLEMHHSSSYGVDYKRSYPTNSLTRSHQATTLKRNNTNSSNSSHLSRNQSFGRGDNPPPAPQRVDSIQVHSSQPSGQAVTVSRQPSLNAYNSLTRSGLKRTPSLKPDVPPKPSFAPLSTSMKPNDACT
B4: Mothers against decapentaplegic homolog 4 (Homo sapiens), Q13485 (parent)
chain: B1 chain
partner: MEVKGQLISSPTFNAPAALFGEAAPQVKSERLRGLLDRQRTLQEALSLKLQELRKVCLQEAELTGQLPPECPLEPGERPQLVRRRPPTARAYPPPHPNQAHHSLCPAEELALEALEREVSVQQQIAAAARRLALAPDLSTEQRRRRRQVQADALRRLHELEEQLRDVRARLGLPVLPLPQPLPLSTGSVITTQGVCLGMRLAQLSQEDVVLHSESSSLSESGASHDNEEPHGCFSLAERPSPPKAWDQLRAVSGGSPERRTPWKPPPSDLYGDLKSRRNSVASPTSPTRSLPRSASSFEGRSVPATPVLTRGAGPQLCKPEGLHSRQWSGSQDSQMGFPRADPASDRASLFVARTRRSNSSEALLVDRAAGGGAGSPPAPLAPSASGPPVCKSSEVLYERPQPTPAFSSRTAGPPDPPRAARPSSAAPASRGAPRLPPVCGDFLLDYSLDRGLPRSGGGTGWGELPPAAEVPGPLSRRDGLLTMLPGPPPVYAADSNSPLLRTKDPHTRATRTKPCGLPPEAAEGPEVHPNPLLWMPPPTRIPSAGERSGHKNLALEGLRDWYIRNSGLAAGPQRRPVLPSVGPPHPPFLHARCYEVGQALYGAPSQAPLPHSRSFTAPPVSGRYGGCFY
B5: Mothers against decapentaplegic homolog 4 (Homo sapiens), Q13485 (parent)
chain: B1 chain
partner: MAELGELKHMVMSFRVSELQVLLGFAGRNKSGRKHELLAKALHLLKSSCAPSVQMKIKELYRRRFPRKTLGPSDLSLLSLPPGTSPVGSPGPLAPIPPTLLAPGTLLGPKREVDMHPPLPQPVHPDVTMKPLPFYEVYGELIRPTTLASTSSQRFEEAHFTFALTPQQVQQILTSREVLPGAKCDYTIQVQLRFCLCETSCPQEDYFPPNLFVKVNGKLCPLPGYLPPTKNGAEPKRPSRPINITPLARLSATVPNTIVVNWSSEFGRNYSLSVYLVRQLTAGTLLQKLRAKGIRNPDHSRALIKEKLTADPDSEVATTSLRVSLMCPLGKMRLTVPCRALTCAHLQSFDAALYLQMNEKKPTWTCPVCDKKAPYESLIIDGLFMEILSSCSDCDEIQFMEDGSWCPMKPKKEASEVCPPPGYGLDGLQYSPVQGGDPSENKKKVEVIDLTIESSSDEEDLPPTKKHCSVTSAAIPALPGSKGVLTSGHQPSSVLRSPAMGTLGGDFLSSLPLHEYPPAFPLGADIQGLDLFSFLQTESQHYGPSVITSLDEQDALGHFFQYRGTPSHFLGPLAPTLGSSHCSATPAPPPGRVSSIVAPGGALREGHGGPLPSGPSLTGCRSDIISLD
B6: Mothers against decapentaplegic homolog 4 (Homo sapiens), Q13485 (parent)
chain: B1 chain
partner: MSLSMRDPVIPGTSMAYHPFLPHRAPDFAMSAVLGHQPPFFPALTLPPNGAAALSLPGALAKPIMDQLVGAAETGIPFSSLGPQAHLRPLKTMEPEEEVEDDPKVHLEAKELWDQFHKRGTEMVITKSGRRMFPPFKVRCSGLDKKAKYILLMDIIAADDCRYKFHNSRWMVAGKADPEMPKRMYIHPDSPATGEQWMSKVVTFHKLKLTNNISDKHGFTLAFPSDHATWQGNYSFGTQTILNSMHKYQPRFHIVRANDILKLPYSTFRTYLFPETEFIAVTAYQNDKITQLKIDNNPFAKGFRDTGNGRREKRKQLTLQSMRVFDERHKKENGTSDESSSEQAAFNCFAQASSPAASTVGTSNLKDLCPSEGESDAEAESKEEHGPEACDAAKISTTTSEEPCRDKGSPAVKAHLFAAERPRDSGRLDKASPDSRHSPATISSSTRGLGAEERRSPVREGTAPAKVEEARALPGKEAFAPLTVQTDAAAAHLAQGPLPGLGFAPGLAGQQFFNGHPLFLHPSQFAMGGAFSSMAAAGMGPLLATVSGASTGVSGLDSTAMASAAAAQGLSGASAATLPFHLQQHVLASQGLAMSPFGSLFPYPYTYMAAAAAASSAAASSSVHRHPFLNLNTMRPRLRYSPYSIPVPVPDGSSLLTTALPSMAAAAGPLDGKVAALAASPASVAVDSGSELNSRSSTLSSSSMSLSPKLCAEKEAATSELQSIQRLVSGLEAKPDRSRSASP
B7: Mothers against decapentaplegic homolog 4 (Homo sapiens), Q13485 (parent)
chain: B1 chain
partner: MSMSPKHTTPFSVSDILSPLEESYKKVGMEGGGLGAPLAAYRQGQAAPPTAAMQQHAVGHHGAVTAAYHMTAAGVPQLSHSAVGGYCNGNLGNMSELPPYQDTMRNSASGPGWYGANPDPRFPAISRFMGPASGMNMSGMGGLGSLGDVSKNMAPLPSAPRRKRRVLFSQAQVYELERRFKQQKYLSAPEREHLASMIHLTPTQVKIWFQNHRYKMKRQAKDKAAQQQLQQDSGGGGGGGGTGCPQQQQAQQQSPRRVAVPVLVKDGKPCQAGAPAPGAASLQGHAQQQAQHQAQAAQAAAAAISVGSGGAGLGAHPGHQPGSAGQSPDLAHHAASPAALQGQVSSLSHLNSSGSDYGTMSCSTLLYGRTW

Variants of: B1
Conditions: with rasf1_human RASSF1, Q9NS23

| Variant | effect of a mutation on the interaction |
| --- | --- |
| D351H | with no effect |

Variants of: B1
Conditions: with rasf1_human RASSF1, Q9NS23
Remark: another data set of the same source

| Variant | effect of a mutation on the interaction |
| --- | --- |
| R361H | with no effect |

Variants of: B1
Conditions: with rasf1_human RASSF1, Q9NS23
Remark: another data set of the same source

| Variant | effect of a mutation on the interaction |
| --- | --- |
| R361C | with no effect |

Variants of: B2
Conditions: with rasf7_human RASSF7, Q02833

| Variant | effect of a mutation on the interaction |
| --- | --- |
| R361H | with no effect |

Variants of: B2
Conditions: with rasf7_human RASSF7, Q02833
Remark: another data set of the same source

| Variant | effect of a mutation on the interaction |
| --- | --- |
| R361C | with no effect |

Variants of: B2
Conditions: with rasf7_human RASSF7, Q02833
Remark: another data set of the same source

| Variant | effect of a mutation on the interaction |
| --- | --- |
| G386D | with no effect |

Variants of: B2
Conditions: with rasf7_human RASSF7, Q02833
Remark: another data set of the same source

| Variant | effect of a mutation on the interaction |
| --- | --- |
| D351H | with no effect |

Variants of: B3
Conditions: with sem6a_human SEMA6A

| Variant | effect of a mutation on the interaction |
| --- | --- |
| D351H | with no effect |

Variants of: B3
Conditions: with sem6a_human SEMA6A
Remark: another data set of the same source

| Variant | effect of a mutation on the interaction |
| --- | --- |
| G386D | with no effect |

Variants of: B3
Conditions: with sem6a_human SEMA6A
Remark: another data set of the same source

| Variant | effect of a mutation on the interaction |
| --- | --- |
| R361C | with no effect |

Variants of: B3
Conditions: with sem6a_human SEMA6A
Remark: another data set of the same source

| Variant | effect of a mutation on the interaction |
| --- | --- |
| R361H | with no effect |

Variants of: B4
Conditions: with cc120_human CCDC120, Q96HB5

| Variant | effect of a mutation on the interaction |
| --- | --- |
| R361C | with no effect |

Variants of: B4
Conditions: with cc120_human CCDC120, Q96HB5
Remark: another data set of the same source

| Variant | effect of a mutation on the interaction |
| --- | --- |
| G386D | with no effect |

Variants of: B4
Conditions: with cc120_human CCDC120, Q96HB5
Remark: another data set of the same source

| Variant | effect of a mutation on the interaction |
| --- | --- |
| G386D | increasing interaction strength |

Variants of: B5
Conditions: with pias3_human PIAS3, Q9Y6X2

| Variant | effect of a mutation on the interaction |
| --- | --- |
| G386D | with no effect |

Variants of: B5
Conditions: with pias3_human PIAS3, Q9Y6X2
Remark: another data set of the same source

| Variant | effect of a mutation on the interaction |
| --- | --- |
| G386D | increasing interaction strength |

Variants of: B6
Conditions: with tbx3_human TBX3, O15119

| Variant | effect of a mutation on the interaction |
| --- | --- |
| R361H | with no effect |

Variants of: B6
Conditions: with tbx3_human TBX3, O15119
Remark: another data set of the same source

| Variant | effect of a mutation on the interaction |
| --- | --- |
| R361C | with no effect |

Variants of: B6
Conditions: with tbx3_human TBX3, O15119
Remark: another data set of the same source

| Variant | effect of a mutation on the interaction |
| --- | --- |
| D351H | with no effect |

Variants of: B6
Conditions: with tbx3_human TBX3, O15119
Remark: another data set of the same source

| Variant | effect of a mutation on the interaction |
| --- | --- |
| G386D | with no effect |

Variants of: B7
Conditions: with nkx21_human NKX2-1, P43699

| Variant | effect of a mutation on the interaction |
| --- | --- |
| R361C | with no effect |

Variants of: B7
Conditions: with nkx21_human NKX2-1, P43699
Remark: another data set of the same source

| Variant | effect of a mutation on the interaction |
| --- | --- |
| R361H | with no effect |

Variants of: B7
Conditions: with nkx21_human NKX2-1, P43699
Remark: another data set of the same source

| Variant | effect of a mutation on the interaction |
| --- | --- |
| G386D | with no effect |
